Source: patent US12053511B2, “Cystatin C and Cystatin 9 to treat gut inflammation caused by thermal injury” (priority 2016, dated 2024)
Values joined by “and” are separate entries in the source; they are usually repeats but may differ in a detail not shown here. Equal entries are not always repeated.

How the values were obtained:
NDM-1 Kp [1] = assay: LD90 NDM-1 Kp pneumonia murine model, survival; format: in vivo, Balb/c mice; settings: for increased survival of Kp infected mice: single i.p. dose, 50 pg/mouse
Source text: To establish the optimal CST route, timing, and dosage regimen against MDR NDM-1 Kp-induced pneumonia, Balb/c mice (n=10-20 mice/gp) were infected with an i.n. LD90 and treated at various times and doses as depicted in Table 1. Doses included i.n. and/or i.p. single rCST9, rCSTC or a combination of rCST9 and rCSTC. Mice that were infected with NDM-1 Kp but were not treated served as controls. rCST treatments by routes, doses, or as a combined therapy were studied to select an optimal regimen.
Evaluate optimal timing and dosage of rCST-9 and/or PEG-rCST9 administration post-infection. Balb/c mice (n=10-20 mice/gp) were intranasally (i.n.) infected with approximately 1.82×10^8 CFU/mouse of Kp 2146 (as established hereinabove) then treated i.n. or i.p. with rCST9, human recombinant cystatin C (rCSTC) or a combination of rCST9 and rCSTC as depicted in Table 1. Kp infected alone served as controls. […] Therefore, as a comparative control to rCST9, the inventors evaluated the effectiveness of rCSTC against pneumonia using the same doses of 50 and/or 500 pg/mouse.
The potential for rCST9/rCSTC treatment to extend the period before successful antibiotic intervention was initiated was determined. For these evaluations, suboptimal doses of colistin were used to determine the extent of protection afforded by rCSTs as well as to minimize side effects/toxicity caused by this antibiotic (n=10 mice/gp). Doses, timing, and route of colistin were chosen based on efficacy studies of colistin in a mouse model of severe, established MDR pneumonia or a very low dose of colistin then adjusted to suboptimal levels for this study. LD90 NDM-1 Kp-challenged mice were treated with the rCST9/rCSTC 3 d i.p. treatment and then given 2 doses of colistin at 20 mg/kg/day or 1.25 mg/kg/day on day 4 and 5 PI.
Mouse model of pneumonia and CST treatments. Eight-week old female Balb/c mice weighing between 21 and 24 grams (Jackson Laboratories) were housed in an Association for Assessment and Accreditation for Laboratory Animal Care (AAALAC)-approved housing facility and permitted to adjust to their environment for 7 d prior to procedures, receiving free access to food and water throughout the study. All procedures were approved by the University of Texas Medical Branch IACUC and performed humanely with minimal suffering. […] One hour PI, mice were administered an i.n. dose of rCST9/rCSTC (50 pg of each) and then, this group of mice was given an i.p. injection of rCST9/rCSTC (500 pg of each) 3 d PI. A parallel group of infected mice received only a single i.p. dose of rCST9/rCSTC, PEG-rCST9/rCSTC (500 pg of each), or PEG-rCST9 (500 pg) alone 3 d PI. NDM-1-Kp infected mice alone or uninfected mice served as controls. Survival was observed up to 15 days post treatment. Additional groups (n=4 mice/group) of infected and CST-treated mice were euthanized at selected time points (24 h, 72 h, 5 and/or 10 d PI) to harvest lungs. Additional groups were treated with i.n. rCSTs (50 pg of each) as described above but they were euthanized at 30 min, 1 h and 3 h to collect lungs for the quantification of lipid peroxidase by-product, known as malondialdehyde (MDA), as described below.
Additional groups of mice (n=15 mice/group) were treated with the optimal CST treatment regimens of an i.n. dose of rCST9/rCSTC (50 pg of each), followed by an i.p. injection of rCST9/rCSTC (500 pg of each) 3 d PI or the single i.p. dose of rCST9/rCSTC (500 pg of each). At 4 d PI, mice were given 2 separate i.p. injections of colistin (JHP Pharmaceuticals, LLC; colistimethate sodium; 20 mg/kg/mouse or 1.25 mg/kg/day) 8 h apart for 2 d.

NDM-1 Kp [2] = assay: In vitro bacteria viability and growth assay; format: cell-based, Klebsiella pneumoniae BAA-2146; settings: given individually and in combination
Source text: Anti-microbial activity of rCST9/rCSTC against NDM-1 Kp. […] To address this directly, PrestoBlue® was used to determine the viability of rCST9/rCSTC-treated NDM-1 Kp based in the reagents rapid reduction by metabolically active bacteria. […] The most substantial decrease in bacterial growth occurred with 50, 500, and 1000 pg of rCSTs compared to lower doses of 10 and 25 pg of rCSTs (FIGS. 7A-C).
Bacteria preparation. The MDR New Delhi metallo-beta-lactamase-1 (NDM-1) producing Klebsiella pneumoniae BAA-2146™ was purchased from ATCC and expanded for 18 hours in 10 mL of brain heart infusion (BHI) broth while shaking at 37° C. The overnight culture was pelleted by centrifugation and then suspended in PBS. Serial dilutions were performed to obtain the desired concentration. Ten-fold dilutions were plated on BHI agar to confirm experimental dosage.
In vitro bacteria viability and growth assay. As a measure of NDM-1 Kp viability, aliquots were treated with Prestoblue® cell viability reagent (Invivogen) following exposure to CSTs. […] Following incubation, […] of Prestoblue® reagent was added to each sample and incubated for 1 h before quantification of cell viability via absorbance at 570-600 nm measurement (Bio-Tek; Epoch Model). […] Additionally, 100 μL of cultures were plated on BHI plates to quantify colony-forming units (CFU) following an overnight incubation at 37° C. […]

IL-8 = IL-8 secretion from intestinal epithelial cells exposed to E. coli 083:H1 and/or flagellin; format: cell-based; settings: after exposure to enteric E. coli 083:H1 and/or flagellin
Source text: (§1) It is known that intestinal leakage of intestinal bacteria and their product occurs following burn injury likely contributing to systemic infection and sepsis.

MIP-1 and IL-8 = assay: Systemic cytokines in gavaged mice given 30% full-thickness burn; format: in vivo, Balb/c mice; settings: gavage 50 pg/mouse, then 30% full-thickness burn; specifically in the lungs
Source text: as §1

gut microbiome = assay: Gut microbiome in gavaged mice given 30% full-thickness burn; format: in vivo, Balb/c mice; settings: gavage 50 pg/mouse, then 30% full-thickness burn
Source text: as §1

[3] = 50 pg per mouse, i.n., 1 h pre-infection
[4] = 50 pg per mouse, i.n., 3 d post-infection
[5] = 50 pg per mouse, i.p. then i.p., 1 h and 3 d post-infection
[6] = 500 pg per mouse, i.n., 1 h and 3 d post-infection
[7] = 500 pg per mouse, i.n., 1 h pre-infection

B1: rCST9: human recombinant cystatin 9, cysteine proteinase inhibitor; purchased from American Research Products, Inc. (protein, UniProt Q5W186 29-159, looked up)
Cystatin-9: WCSEEEMGGNNKIVQDPMFLATVEFALNTFNVQSKEEHAYRLLRVLSSWREDSMDRKWRGKMVFSMNLQLRQTVCRKFEDDIDNCPFQESLELNNVRQGISFPQVHSCGCCMGCGVGTGAADKAIPRDKGK
increased % survival of Kp LD90 mice (NDM-1 Kp [1]; [3]): increased survival and 10% | increased % survival of Kp LD90 mice (NDM-1 Kp [1]; [4]): 10% | increased % survival of Kp LD90 mice (NDM-1 Kp [1]; [5]): 5% | increased % survival of Kp LD90 mice (NDM-1 Kp [1]; [6]): 10% | increased % survival of Kp LD90 mice (NDM-1 Kp [1]; [7]): 10% | increased survival of Kp infected mice (NDM-1 Kp [1]): 15% | replication of NDM-1-producing Kp (NDM-1 Kp [2]): inhibited the replication | IL-8 secretion from intestinal epithelial cells (IL-8): decreased IL-8 secretion | systemic MIP-1 and IL-8 secretion (MIP-1 and IL-8): decrease in systemic MIP-1 and IL-8 secretion | gut microbiome (gut microbiome): preserved the gut microbiome

B2: rCSTC: human recombinant cystatin C (CST3), cysteine proteinase inhibitor; purchased from R&D Systems (protein, UniProt P01034 27-146, looked up)
Cystatin-C: SSPGKPPRLVGGPMDASVEEEGVRRALDFAVGEYNKASNDMYHSRALQVVRARKQIVAGVNYFLDVELGRTTCTKTQPNLDNCPFHDQPHLKRKAFCSFQIYAVPWQGTMTLSKSTCQDA
increased % survival of Kp LD90 mice (NDM-1 Kp [1]; [3]): increased survival and 20% | increased % survival of Kp LD90 mice (NDM-1 Kp [1]; [4]): 10% | increased % survival of Kp LD90 mice (NDM-1 Kp [1]; [5]): 5% | increased % survival of Kp LD90 mice (NDM-1 Kp [1]; [6]): 10% | increased % survival of Kp LD90 mice (NDM-1 Kp [1]; [7]): 10% | increased survival of Kp infected mice (NDM-1 Kp [1]): 15% | replication of NDM-1-producing Kp (NDM-1 Kp [2]): inhibited the replication | IL-8 secretion from intestinal epithelial cells (IL-8): decreased IL-8 secretion | systemic MIP-1 and IL-8 secretion (MIP-1 and IL-8): decrease in systemic MIP-1 and IL-8 secretion | gut microbiome (gut microbiome): preserved the gut microbiome
